Molecular target: Dfd (Deformed);Exd (Extradenticle) (Drosophila melanogaster?;Drosophila melanogaster?) (UniProt P07548+P40427)
Test: EMSA
Settings: class 2 site printed as 9.1 mM in same passage; assay source not fully shown; 20 mM HEPES pH 7.9, 1.4 mM MgCl2, 1 mM ZnSO4, 40 mM KCl, 0.1 mM EGTA, 5% glycerol, 10 mM DTT, 0.1% NP40, 200 ng poly(dI-dC), 3 ug BSA, 2 pmol Cy5 dsDNA in …

Dfd (Deformed);Exd (Extradenticle) (Drosophila melanogaster?;Drosophila melanogaster?), sequence (P07548 whole entry, chain 1 of 2): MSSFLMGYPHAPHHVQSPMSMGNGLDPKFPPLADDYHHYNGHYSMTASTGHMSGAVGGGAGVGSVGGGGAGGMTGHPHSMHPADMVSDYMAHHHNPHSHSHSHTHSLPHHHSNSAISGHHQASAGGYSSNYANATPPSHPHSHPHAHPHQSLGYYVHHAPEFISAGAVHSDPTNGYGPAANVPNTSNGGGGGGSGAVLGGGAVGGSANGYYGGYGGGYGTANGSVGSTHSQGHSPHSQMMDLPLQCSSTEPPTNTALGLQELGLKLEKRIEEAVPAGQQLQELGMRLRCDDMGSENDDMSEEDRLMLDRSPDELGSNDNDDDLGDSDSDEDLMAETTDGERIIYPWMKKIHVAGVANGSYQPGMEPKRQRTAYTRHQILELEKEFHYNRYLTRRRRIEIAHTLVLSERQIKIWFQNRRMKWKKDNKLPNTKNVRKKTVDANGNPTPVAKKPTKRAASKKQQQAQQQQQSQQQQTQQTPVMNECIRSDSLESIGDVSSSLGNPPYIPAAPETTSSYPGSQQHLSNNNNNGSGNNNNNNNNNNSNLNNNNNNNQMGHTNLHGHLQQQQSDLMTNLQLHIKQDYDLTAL
Dfd (Deformed);Exd (Extradenticle) (Drosophila melanogaster?;Drosophila melanogaster?), sequence (P40427 whole entry, chain 2 of 2): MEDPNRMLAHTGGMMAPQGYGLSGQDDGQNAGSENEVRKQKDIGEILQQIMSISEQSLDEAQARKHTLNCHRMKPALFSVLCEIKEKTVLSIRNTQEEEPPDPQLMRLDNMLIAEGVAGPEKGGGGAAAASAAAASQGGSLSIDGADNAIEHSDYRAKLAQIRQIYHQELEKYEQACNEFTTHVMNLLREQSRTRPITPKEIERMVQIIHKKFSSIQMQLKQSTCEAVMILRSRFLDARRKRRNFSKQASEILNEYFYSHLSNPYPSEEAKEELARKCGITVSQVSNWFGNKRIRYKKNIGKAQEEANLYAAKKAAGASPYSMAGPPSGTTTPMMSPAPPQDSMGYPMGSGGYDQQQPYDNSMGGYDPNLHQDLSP

Question: For modC enhancer site I, which Kd (mM (so in the source); probably nM)) is on record?
Answer: 5.5
